Measurements published in patent US20200109390A1 (Chugai, published 2020).
Blank lines part the entries; values can stand above or below the binder they belong to.

Molecular target: T1, human blood coagulation factor IX (human, UniProt P00740 47-461, Gla (gamma-carboxyglutamate) residues in the GLA domain of native FIX); the twelve Glu of the GLA domain are at positions 53, 54, 61, 63, 66, 67, 72, 73, 76, 79, 82 and 86 of SEQ ID NO: 1 (positions …)
T1 construct: The FIX co-administered with the antibodies was Christmassin M I.V; antibody A was raised against human FIXa; also called FIX; human FIX
Assay: not described (statement in Example 4)
Procedure: PK tests using mice were performed by the following method. Through the tail vein or under the dorsal skin of mice (C57BL/6J mouse, Charles River Japan), FIX (Christmassin M I.V.) was administered at a dose of 0.6 mg/kg by itself or simultaneously with 8 mg/kg of an anti-FIX antibody A or anti-FIX antibody B, in a single dose. Blood was collected five minutes, two hours, four hours, seven hours, one day, two days, seven days, 14 days, 21 days, and 28 days after the administration. The collected blood was immediately subjected to separation by centrifugation at 4° C. and 15,000 rpm for 15 minutes to obtain the plasma. The separated plasma was stored in a freezer set to −20° C. or lower until performing the measurements.
The concentration of FIX in mouse plasma was determined by ELISA. […] After stopping the reaction by adding a reaction-stopping solution (AssayPro), the 450-nm absorbance of the reaction solution in each well was measured using a microplate reader. The concentrations of FIX in mouse plasma were calculated from the absorbances of the calibration curve using SOFTmax PRO analysis software (Molecular Devices).

T1 sequence (P00740 47-461): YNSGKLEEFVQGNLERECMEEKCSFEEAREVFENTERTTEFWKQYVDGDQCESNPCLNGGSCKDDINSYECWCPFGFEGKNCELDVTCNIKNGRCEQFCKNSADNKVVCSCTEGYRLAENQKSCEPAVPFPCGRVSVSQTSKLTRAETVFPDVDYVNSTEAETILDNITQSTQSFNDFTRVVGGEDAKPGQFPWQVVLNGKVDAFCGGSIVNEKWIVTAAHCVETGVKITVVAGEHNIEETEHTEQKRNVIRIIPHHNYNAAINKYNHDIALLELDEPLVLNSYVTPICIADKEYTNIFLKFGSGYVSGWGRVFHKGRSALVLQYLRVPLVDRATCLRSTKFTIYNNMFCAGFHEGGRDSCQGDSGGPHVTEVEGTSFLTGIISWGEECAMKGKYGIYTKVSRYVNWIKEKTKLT

- binding result: binds
B1: anti-FIX antibody A (antibody, human IgG1, kappa, V domains shown)
VH: QVQLQQSGAELAKPGASVKLSCKASGYTFTSSWMHWIKQRPGQGLEWLGYINPSSGYTKYNRKFRDKATLTADKSSSTAYMQLTSLTYEDSAVYYCARGGNGYYFDYWGQGTTLTVSS
VL: DIVMTQSHKFMSTSVGDRVSITCKASQDVGTAVAWYQQKPGQSPKLLIYWASTRHTGVPDRFTGSRYGTDFTLTISNVQSEDLADYLCQQYSNYITFGGGTKLELKR
notes: Obtained by immunizing an animal with human FIXa

- binding result: binds
B2: anti-FIX antibody B (antibody, human IgG1, kappa, V domains shown)
VH: QVQLVQSGSELKKPGASVKVSCKASGYTFTNYGMNWVRQAPGQGLKWMGWINTRNGKSTYVDDFKGRFVFSLDSSVSTAYLQISSLKADDTAVYYCTREGNMDGYFPFTYWGQGTLVTVSS
VL: QIVLTQSPSSLSASVGDRVTITCRASSSVNYMHWYQQKPGKAPKPWIYATSNLASGVPSRFSGSGSGTDYTFTISSLQPEDIATYYCQQWSINPRTFGQGTKVEIKR
notes: expressed transiently in FS293 cells
